Data published in article PMC10556141, “Yeast Rad52 is a homodecamer and possesses BRCA2-like bipartite Rad51 binding modes”.

What was measured:
Rad52 [1] = biological target: T1, Rad52 (Saccharomyces cerevisiae, UniProt P06778 1-471); experiment: fluorescence anisotropy; preformed complex, reversible; Anisotropy/FRET: 50 mM Tris-acetate pH 7.5, 50 mM KCl, 5 mM MgCl2, 10% glycerol, 1 mM DTT, 0.2 mg/mL BSA, 23 C; stopped flow: 50 mM Tris-acetate pH 7.5, 5 mM Mg; conditions: protein: recombinant; chain copies: 10; label: 5'-FAM; single strand
Rad52 [2] = biological target: T1, Rad52; experiment: competition; competes with FAM-(dT)70; Anisotropy/FRET: 50 mM Tris-acetate pH 7.5, 50 mM KCl, 5 mM MgCl2, 10% glycerol, 1 mM DTT, 0.2 mg/mL BSA, 23 C; stopped flow: 50 mM Tris-acetate pH 7.5, 5 mM Mg; conditions: protein: recombinant; chain copies: 10; single strand
Rad52 [3] = biological target: T1, Rad52; experiment: stopped-flow FRET; Anisotropy/FRET: 50 mM Tris-acetate pH 7.5, 50 mM KCl, 5 mM MgCl2, 10% glycerol, 1 mM DTT, 0.2 mg/mL BSA, 23 C; stopped flow: 50 mM Tris-acetate pH 7.5, 5 mM Mg; conditions: protein: recombinant; chain copies: 10; label: 5'-Cy5, 3'-Cy3; single strand
Rad52ΔC [4] = biological target: T2, Rad52ΔC (Saccharomyces cerevisiae, UniProt P06778 1-217); experiment: as above; conditions: protein: recombinant; chain copies: 10; label: 5'-Cy5, 3'-Cy3; single strand
Rad51 [5] = biological target: T3, Rad51 (Saccharomyces cerevisiae, UniProt P25454 1-400); experiment: stopped-flow FRET; ATP; filament on Rad52-prebound DNA; Anisotropy/FRET: 50 mM Tris-acetate pH 7.5, 50 mM KCl, 5 mM MgCl2, 10% glycerol, 1 mM DTT, 0.2 mg/mL BSA, 23 C; stopped flow: 50 mM Tris-acetate pH 7.5, 5 mM Mg; conditions: protein: recombinant; label: 5'-Cy5, 3'-Cy3; single strand
Rad52ΔC [6] = biological target: T2, Rad52ΔC; experiment: AUC sedimentation velocity; Anisotropy/FRET: 50 mM Tris-acetate pH 7.5, 50 mM KCl, 5 mM MgCl2, 10% glycerol, 1 mM DTT, 0.2 mg/mL BSA, 23 C; stopped flow: 50 mM Tris-acetate pH 7.5, 5 mM Mg; conditions: protein: recombinant; chain copies: 10; single strand
Rad52 [7] = biological target: T1, Rad52; experiment: AUC sedimentation velocity; 1:1 decamer:DNA; Anisotropy/FRET: 50 mM Tris-acetate pH 7.5, 50 mM KCl, 5 mM MgCl2, 10% glycerol, 1 mM DTT, 0.2 mg/mL BSA, 23 C; stopped flow: 50 mM Tris-acetate pH 7.5, 5 mM Mg; conditions: protein: recombinant; chain copies: 10; single strand
Rad52 [8] = biological target: T1, Rad52; experiment: fluorescence anisotropy; stoichiometric, too tight to fit; Anisotropy/FRET: 50 mM Tris-acetate pH 7.5, 50 mM KCl, 5 mM MgCl2, 10% glycerol, 1 mM DTT, 0.2 mg/mL BSA, 23 C; stopped flow: 50 mM Tris-acetate pH 7.5, 5 mM Mg; conditions: protein: recombinant; chain copies: 10; label: 5'-FAM; single strand
Rad52ΔC [9] = biological target: T2, Rad52ΔC; experiment: as above; conditions: protein: recombinant; chain copies: 10; label: 5'-FAM; single strand
Rad52 [10] = biological target: T1, Rad52; experiment: tryptophan quenching; high affinity site, two-site sequential model; Anisotropy/FRET: 50 mM Tris-acetate pH 7.5, 50 mM KCl, 5 mM MgCl2, 10% glycerol, 1 mM DTT, 0.2 mg/mL BSA, 23 C; stopped flow: 50 mM Tris-acetate pH 7.5, 5 mM Mg; conditions: protein: recombinant; chain copies: 10; single strand
Rad52 [11] = biological target: T1, Rad52; experiment: tryptophan quenching; lower affinity site, two-site sequential model; Anisotropy/FRET: 50 mM Tris-acetate pH 7.5, 50 mM KCl, 5 mM MgCl2, 10% glycerol, 1 mM DTT, 0.2 mg/mL BSA, 23 C; stopped flow: 50 mM Tris-acetate pH 7.5, 5 mM Mg; conditions: protein: recombinant; chain copies: 10; single strand
Rad52 [12] = biological target: T1, Rad52; experiment: tryptophan quenching; profile similar to (dT)84; Anisotropy/FRET: 50 mM Tris-acetate pH 7.5, 50 mM KCl, 5 mM MgCl2, 10% glycerol, 1 mM DTT, 0.2 mg/mL BSA, 23 C; stopped flow: 50 mM Tris-acetate pH 7.5, 5 mM Mg; conditions: protein: recombinant; chain copies: 10; single strand
Rad52 [13] = biological target: T1, Rad52; experiment: FRET; 45 nt sufficient to capture FRET; Anisotropy/FRET: 50 mM Tris-acetate pH 7.5, 50 mM KCl, 5 mM MgCl2, 10% glycerol, 1 mM DTT, 0.2 mg/mL BSA, 23 C; stopped flow: 50 mM Tris-acetate pH 7.5, 5 mM Mg; conditions: protein: recombinant; chain copies: 10; label: 5'-Cy5, 3'-Cy3; single strand
Rad52 [14] = biological target: T1, Rad52; experiment: FRET; steady-state wrapping; Anisotropy/FRET: 50 mM Tris-acetate pH 7.5, 50 mM KCl, 5 mM MgCl2, 10% glycerol, 1 mM DTT, 0.2 mg/mL BSA, 23 C; stopped flow: 50 mM Tris-acetate pH 7.5, 5 mM Mg; conditions: protein: recombinant; chain copies: 10; label: 5'-Cy5, 3'-Cy3; single strand
Rad52ΔC [15] = biological target: T2, Rad52ΔC; experiment: as above; conditions: protein: recombinant; chain copies: 10; label: 5'-Cy5, 3'-Cy3; single strand
Rad51 [16] = biological target: T3, Rad51; experiment: FRET; outcompetes prebound Rad52 or Rad52ΔC at steady state; Anisotropy/FRET: 50 mM Tris-acetate pH 7.5, 50 mM KCl, 5 mM MgCl2, 10% glycerol, 1 mM DTT, 0.2 mg/mL BSA, 23 C; stopped flow: 50 mM Tris-acetate pH 7.5, 5 mM Mg; conditions: protein: recombinant; label: 5'-Cy5, 3'-Cy3; single strand

B1: FAM-(dT)70 (ssDNA)
DNA: TTTTTTTTTTTTTTTTTTTTTTTTTTTTTTTTTTTTTTTTTTTTTTTTTTTTTTTTTTTTTTTTTTTTTT
B1: binds (Rad52 [1]).

B2: (dT)70 unlabeled (ssDNA)
DNA: B1 DNA
B2: binds (Rad52 [2]).

B3: Cy5-(dT)97-Cy3 (ssDNA)
DNA: TTTTTTTTTTTTTTTTTTTTTTTTTTTTTTTTTTTTTTTTTTTTTTTTTTTTTTTTTTTTTTTTTTTTTTTTTTTTTTTTTTTTTTTTTTTTTTTTT
B3: binds (Rad52 [3]); binds (Rad52ΔC [4]); binds (Rad51 [5]).

B4: (dT)97 (ssDNA)
DNA: B3 DNA
B4: binds (Rad52ΔC [6]); binds (Rad52 [7]).

B5: FAM-(dT)35 (ssDNA)
DNA: TTTTTTTTTTTTTTTTTTTTTTTTTTTTTTTTTTT
B5: binds (Rad52 [8]); binds (Rad52ΔC [9]).

B6: (dT)84 (ssDNA)
DNA: TTTTTTTTTTTTTTTTTTTTTTTTTTTTTTTTTTTTTTTTTTTTTTTTTTTTTTTTTTTTTTTTTTTTTTTTTTTTTTTTTTTT
Work on B6 yielded a Kd (Rad52 [10]) of 0.0013 nM and a Kd (Rad52 [11]) of 28 nM.

B7: (dT)54 (ssDNA)
DNA: TTTTTTTTTTTTTTTTTTTTTTTTTTTTTTTTTTTTTTTTTTTTTTTTTTTTTT
B7: binds (Rad52 [12]).

B8: Cy5-(dT)45-Cy3 (ssDNA)
DNA: TTTTTTTTTTTTTTTTTTTTTTTTTTTTTTTTTTTTTTTTTTTTT
B8: binds (Rad52 [13]).

B9: (dT)45 (ssDNA)
DNA: B8 DNA
B9: binds (Rad52ΔC [6]); binds (Rad52 [7]).

B10: Cy5-(dT)80-Cy3 (ssDNA)
DNA: TTTTTTTTTTTTTTTTTTTTTTTTTTTTTTTTTTTTTTTTTTTTTTTTTTTTTTTTTTTTTTTTTTTTTTTTTTTTTTTT
B10: binds (Rad52 [14]); binds (Rad52ΔC [15]); binds (Rad51 [16]).
